Assays:
[1] = system: SJSA-1 osteosarcoma cells; experiment: SJSA-1 osteosarcoma xenograft model (05-IGFR-21), dosing from 15 days after inoculation; assay type: in vivo, female nude mouse (strain NU/NU)
Protocol: Xenograft tumor size was measured twice per week with a caliper and captured electronically by the LabCat program. […] For the experiments set forth in Table 9, dosing was initiated 15 days after inoculation. […] Xenograft tumor size was measured twice per week with a caliper and captured electronically by the LabCat program.

[2] = system: Hs700T malignant pancreatic cells; experiment: Hs700T pancreatic xenograft tumor growth in mice (04 IGFR-16, 19D12 and Gemzar combination);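 note: subcutaneous flank xenografts in athymic nude mice, treated once tumors averaged 100 mm^3, antibody given intraperitoneally twice weekly, tumor size measured by calipers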
Protocol: (§1) Athymic nude mice were inoculated with tumor cells in the right flank, subcutaneously, along with Matrigel (1:1 cells:gel). In these experiments, 5×10^6 cells/mouse in a 1:1 mix with regular matrigel were inoculated subcutaneously. Tumor size was measured with calipers and the data was entered into the labcat program. Mice were grouped with average size of 100 mm^3. Tumor size and body weight were measured twice weekly.
(§2) In these experiments, mice were dosed twice per week, intraperitoneally (i.p.) with antibody 19D12 and chemotherapeutic agents at the indicated frequency. Tumor size and mouse body weight was measured twice weekly after treatment.

[3] = system: SK-N-FI neuroblastoma cells; experiment: SK-N-FI neuroblastoma xenograft tumor growth in mice (04 IGFR-20); assay type: in vivo, Athymic nude mice
[4] = system: SK-N-AS neuroblatoma cells; experiment: SK-N-AS neuroblastoma xenograft tumor growth in mice (03 IGFR-09, 19D12 vs. Cytoxan); assay type: in vivo, Athymic nude mice
Protocol: as §1, §2

[5] = system: SK-N-MC neuroblastoma cells; experiment: SK-N-MC neuroblastoma xenograft tumor growth in mice (04 IGFR-13, 19D12 vs. Cisplatin); assay type: in vivo, Athymic nude mice
[6] = system: SJCRH30 rhabdomyosarcoma cells; experiment: SJCRH30 rhabdomyosarcoma xenograft tumor growth in mice (05 IGFR-01, 19D12 and Cytoxan); assay type: in vivo, Athymic nude mice
Protocol: as §1, §2

B1: 19D12: anti-IGF1R antibody: light chain variable region amino acids 20-128 of SEQ ID NO: 8, heavy chain variable region amino acids 20-137 of SEQ ID NO: 10 (antibody, V domains shown)
VL: MSPSQLIGFLLLWVPASRGEIVLTQSPGTLSVSPGERATLSCRASQSIGSSLHWYQQKPGQAPRLLIKYASQSLSGIPDRFSGSGSGTDFTLTISRLEPEDFAVYYCHQSSRLPHTFGQGTKVEIKRT
VH: MEFGLSWVFLVAILKGVQCEVQLVQSGGGLVKPGGSLRLSCAASGFTFSSFAMHWVRQAPGKGLEWISVIDTRGATYYADSVKGRFTISRDNAKNSLYLQMNSLRAEDTAVYYCARLGNFYYGMDVWGQGTTVTVSS
modifications: variable regions only: LC 20-128, HC 20-137; constant regions lack entries
[1]; 0.04 mg 19D12, Day 0
  Mean Tumor size: 142 mm3
[1]; 0.04 mg 19D12, Day 4
  Mean Tumor size: 153 mm3
[1]; 0.04 mg 19D12, Day 7
  Mean Tumor size: 222 mm3
[1]; 0.04 mg 19D12, Day 11
  Mean Tumor size: 306 mm3
[1]; 0.04 mg 19D12, Day 14
  Mean Tumor size: 431 mm3
[1]; 0.1 mg 19D12, Day 0
  Mean Tumor size: 145 mm3
[1]; 0.1 mg 19D12, Day 4
  Mean Tumor size: 147 mm3
[1]; 0.1 mg 19D12, Day 7
  Mean Tumor size: 151 mm3
[1]; 0.1 mg 19D12, Day 11
  Mean Tumor size: 212 mm3
[1]; 0.1 mg 19D12, Day 14
  Mean Tumor size: 251 mm3
[1]; ip twice a week, 0.04 or 0.1 mg per mouse, with Cytoxan 50 or 100 mpk once a week, summary of Table 9
  regression of tumor volume (in words): anti-IGF1R-dependent regression of tumor volume
[2]; 0.1 mg 19D12, Day 0
  Tumor Average Size: 74 mm^3
[2]; 0.1 mg 19D12, Day 4
  Tumor Average Size: 86 mm^3
[2]; 0.1 mg 19D12, Day 7
  Tumor Average Size: 89 mm^3
[2]; 0.1 mg 19D12, Day 11
  Tumor Average Size: 98 mm^3
[2]; 0.1 mg 19D12, Day 14
  Tumor Average Size: 123 mm^3
[2]; 0.1 mg 19D12, Day 18
  Tumor Average Size: 165 mm^3
[2]; 0.1 mg 19D12, Day 21
  Tumor Average Size: 187 mm^3
[2]; 0.1 mg 19D12, Day 26
  Tumor Average Size: 272 mm^3
[2]; 0.1 mg 19D12, Day 29
  Tumor Average Size: 335 mm^3
[2]; 0.1 mg 19D12, Day 33
  Tumor Average Size: 371 mm^3
[2]; 0.1 mg 19D12, Day 36
  Tumor Average Size: 415 mm^3
[2]; 0.5 mg 19D12, Day 0
  Tumor Average Size: 75 mm^3
[2]; 0.5 mg 19D12, Day 4
  Tumor Average Size: 70 mm^3
[2]; 0.5 mg 19D12, Day 7
  Tumor Average Size: 69 mm^3
[2]; 0.5 mg 19D12, Day 11
  Tumor Average Size: 71 mm^3
[2]; 0.5 mg 19D12, Day 14
  Tumor Average Size: 93 mm^3
[2]; 0.5 mg 19D12, Day 18
  Tumor Average Size: 115 mm^3
[2]; 0.5 mg 19D12, Day 21
  Tumor Average Size: 137 mm^3
[2]; 0.5 mg 19D12, Day 26
  Tumor Average Size: 239 mm^3
[2]; 0.5 mg 19D12, Day 29
  Tumor Average Size: 249 mm^3
[2]; 0.5 mg 19D12, Day 33
  Tumor Average Size: 282 mm^3
[2]; 0.5 mg 19D12, Day 36
  Tumor Average Size: 334 mm^3
[2]; 1 mg 19D12, Day 0
  Tumor Average Size: 77 mm^3
[2]; 1 mg 19D12, Day 4
  Tumor Average Size: 80 mm^3
[2]; 1 mg 19D12, Day 7
  Tumor Average Size: 85 mm^3
[2]; 1 mg 19D12, Day 11
  Tumor Average Size: 81 mm^3
[2]; 1 mg 19D12, Day 14
  Tumor Average Size: 99 mm^3
[2]; 1 mg 19D12, Day 18
  Tumor Average Size: 128 mm^3
[2]; 1 mg 19D12, Day 21
  Tumor Average Size: 152 mm^3
[2]; 1 mg 19D12, Day 26
  Tumor Average Size: 231 mm^3
[2]; 1 mg 19D12, Day 29
  Tumor Average Size: 280 mm^3
[2]; 1 mg 19D12, Day 33
  Tumor Average Size: 312 mm^3
[2]; 1 mg 19D12, Day 36
  Tumor Average Size: 305 mm^3
[3]; 0.02 mg 19D12, Day 0
  Tumor Average Size: 150 mm^3
[3]; 0.02 mg 19D12, Day 5
  Tumor Average Size: 181 mm^3
[3]; 0.02 mg 19D12, Day 8
  Tumor Average Size: 204 mm^3
[3]; 0.02 mg 19D12, Day 12
  Tumor Average Size: 207 mm^3
[3]; 0.02 mg 19D12, Day 15
  Tumor Average Size: 217 mm^3
[3]; 0.02 mg 19D12, Day 19
  Tumor Average Size: 237 mm^3
[3]; 0.02 mg 19D12, Day 22
  Tumor Average Size: 290 mm^3
[3]; 0.1 mg 19D12, Day 0
  Tumor Average Size: 151 mm^3
[3]; 0.1 mg 19D12, Day 5
  Tumor Average Size: 164 mm^3
[3]; 0.1 mg 19D12, Day 8
  Tumor Average Size: 146 mm^3
[3]; 0.1 mg 19D12, Day 12
  Tumor Average Size: 154 mm^3
[3]; 0.1 mg 19D12, Day 15
  Tumor Average Size: 141 mm^3
[3]; 0.1 mg 19D12, Day 19
  Tumor Average Size: 154 mm^3
[3]; 0.1 mg 19D12, Day 22
  Tumor Average Size: 170 mm^3
[3]; 1 mg 19D12, Day 0
  Tumor Average Size: 155 mm^3
[3]; 1 mg 19D12, Day 5
  Tumor Average Size: 161 mm^3
[3]; 1 mg 19D12, Day 8
  Tumor Average Size: 128 mm^3
[3]; 1 mg 19D12, Day 12
  Tumor Average Size: 126 mm^3
[3]; 1 mg 19D12, Day 15
  Tumor Average Size: 118 mm^3
[3]; 1 mg 19D12, Day 19
  Tumor Average Size: 117 mm^3
[3]; 1 mg 19D12, Day 22
  Tumor Average Size: 122 mm^3
[4]; 0.004 mg 19D12/IgG1, Day 4
  Tumor Average Size: 335 mm^3
[4]; 0.004 mg 19D12/IgG1, Day 7
  Tumor Average Size: 568 mm^3
[4]; 0.004 mg 19D12/IgG1, Day 11
  Tumor Average Size: 1314 mm^3
[4]; 0.004 mg 19D12/IgG1, Day -1
  Tumor Average Size: 142 mm^3
[4]; 0.02 mg 19D12/IgG1, Day 4
  Tumor Average Size: 231 mm^3
[4]; 0.02 mg 19D12/IgG1, Day 7
  Tumor Average Size: 307 mm^3
[4]; 0.02 mg 19D12/IgG1, Day 11
  Tumor Average Size: 547 mm^3
[4]; 0.02 mg 19D12/IgG1, Day -1
  Tumor Average Size: 137 mm^3
[4]; 0.1 mg 19D12/IgG1, Day 4
  Tumor Average Size: 249 mm^3
[4]; 0.1 mg 19D12/IgG1, Day 7
  Tumor Average Size: 321 mm^3
[4]; 0.1 mg 19D12/IgG1, Day 11
  Tumor Average Size: 615 mm^3
[4]; 0.1 mg 19D12/IgG1, Day -1
  Tumor Average Size: 135 mm^3
[4]; 0.5 mg 19D12/IgG1, Day 4
  Tumor Average Size: 205 mm^3
[4]; 0.5 mg 19D12/IgG1, Day 7
  Tumor Average Size: 273 mm^3
[4]; 0.5 mg 19D12/IgG1, Day 11
  Tumor Average Size: 492 mm^3
[4]; 0.5 mg 19D12/IgG1, Day -1
  Tumor Average Size: 123 mm^3
[5]; 0.004 mg 19D12, Day 0
  Tumor Average Size: 89 mm^3
[5]; 0.004 mg 19D12, Day 2
  Tumor Average Size: 120 mm^3
[5]; 0.004 mg 19D12, Day 6
  Tumor Average Size: 146 mm^3
[5]; 0.004 mg 19D12, Day 9
  Tumor Average Size: 177 mm^3
[5]; 0.004 mg 19D12, Day 13
  Tumor Average Size: 212 mm^3
[5]; 0.004 mg 19D12, Day 16
  Tumor Average Size: 235 mm^3
[5]; 0.004 mg 19D12, Day 20
  Tumor Average Size: 292 mm^3
[5]; 0.004 mg 19D12, Day 23
  Tumor Average Size: 331 mm^3
[5]; 0.004 mg 19D12, Day 24
  Tumor Average Size: 331 mm^3
[5]; 0.02 mg 19D12, Day 0
  Tumor Average Size: 97 mm^3
[5]; 0.02 mg 19D12, Day 2
  Tumor Average Size: 122 mm^3
[5]; 0.02 mg 19D12, Day 6
  Tumor Average Size: 151 mm^3
[5]; 0.02 mg 19D12, Day 9
  Tumor Average Size: 189 mm^3
[5]; 0.02 mg 19D12, Day 13
  Tumor Average Size: 222 mm^3
[5]; 0.02 mg 19D12, Day 16
  Tumor Average Size: 248 mm^3
[5]; 0.02 mg 19D12, Day 20
  Tumor Average Size: 292 mm^3
[5]; 0.02 mg 19D12, Day 23
  Tumor Average Size: 344 mm^3
[5]; 0.02 mg 19D12, Day 24
  Tumor Average Size: 344 mm^3
[5]; 0.1 mg 19D12, Day 0
  Tumor Average Size: 89 mm^3
[5]; 0.1 mg 19D12, Day 2
  Tumor Average Size: 115 mm^3
[5]; 0.1 mg 19D12, Day 6
  Tumor Average Size: 144 mm^3
[5]; 0.1 mg 19D12, Day 9
  Tumor Average Size: 193 mm^3
[5]; 0.1 mg 19D12, Day 13
  Tumor Average Size: 226 mm^3
[5]; 0.1 mg 19D12, Day 16
  Tumor Average Size: 245 mm^3
[5]; 0.1 mg 19D12, Day 20
  Tumor Average Size: 282 mm^3
[5]; 0.1 mg 19D12, Day 23
  Tumor Average Size: 335 mm^3
[5]; 0.1 mg 19D12, Day 24
  Tumor Average Size: 335 mm^3
[5]; 0.5 mg 19D12, Day 0
  Tumor Average Size: 83 mm^3
[5]; 0.5 mg 19D12, Day 2
  Tumor Average Size: 107 mm^3
[5]; 0.5 mg 19D12, Day 6
  Tumor Average Size: 133 mm^3
[5]; 0.5 mg 19D12, Day 9
  Tumor Average Size: 173 mm^3
[5]; 0.5 mg 19D12, Day 13
  Tumor Average Size: 210 mm^3
[5]; 0.5 mg 19D12, Day 16
  Tumor Average Size: 234 mm^3
[5]; 0.5 mg 19D12, Day 20
  Tumor Average Size: 264 mm^3
[5]; 0.5 mg 19D12, Day 23
  Tumor Average Size: 317 mm^3
[5]; 0.5 mg 19D12, Day 24
  Tumor Average Size: 317 mm^3
[6]; 0.02 mg 19D12, Day 0
  Tumor Average Size: 74 mm^3
[6]; 0.02 mg 19D12, Day 4
  Tumor Average Size: 144 mm^3
[6]; 0.02 mg 19D12, Day 7
  Tumor Average Size: 337 mm^3
[6]; 0.02 mg 19D12, Day 11
  Tumor Average Size: 534 mm^3
[6]; 0.02 mg 19D12, Day 14
  Tumor Average Size: 714 mm^3
[6]; 0.02 mg 19D12, Day 18
  Tumor Average Size: 926 mm^3
[6]; 0.1 mg 19D12, Day 0
  Tumor Average Size: 74 mm^3
[6]; 0.1 mg 19D12, Day 4
  Tumor Average Size: 126 mm^3
[6]; 0.1 mg 19D12, Day 7
  Tumor Average Size: 232 mm^3
[6]; 0.1 mg 19D12, Day 11
  Tumor Average Size: 372 mm^3
[6]; 0.1 mg 19D12, Day 14
  Tumor Average Size: 520 mm^3
[6]; 0.1 mg 19D12, Day 18
  Tumor Average Size: 681 mm^3
[6]; 1 mg 19D12, Day 0
  Tumor Average Size: 75 mm^3
[6]; 1 mg 19D12, Day 4
  Tumor Average Size: 103 mm^3
[6]; 1 mg 19D12, Day 7
  Tumor Average Size: 183 mm^3
[6]; 1 mg 19D12, Day 11
  Tumor Average Size: 284 mm^3
[6]; 1 mg 19D12, Day 14
  Tumor Average Size: 442 mm^3
[6]; 1 mg 19D12, Day 18
  Tumor Average Size: 562 mm^3

— US20150093398A1, “Methods and Compositions for Treating or Preventing Cancer” (MERCK SHARP & DOHME CORP., priority 2005, published 2015)
